Where two headings read alike, the source gives them in different places.
Assays:
TSHR260-AP (human) [1] = test: TSHR260-AP bridge ELISA (full length TSHR on wells, TSHR260-AP in solution); IgG 10 µg/mL diluted in assay buffer
TSHR260-AP (human) [2] = test: TSHR260-AP bridge ELISA (full length TSHR on wells, TSHR260-AP in solution); IgG 0.01 µg/mL diluted in HBD serum
TSHR260-AP (human) [3] = test: TSHR260-AP bridge ELISA (full length TSHR on wells, TSHR260-AP in solution); IgG 250 µg/mL diluted in HBD serum
[4] = target: TSHR260-alkaline phosphatase (TSHR260-AP) (human) (UniProt P05187); test: TSHR260-AP bridge ELISA, full length TSHR on wells; 0.5 µg/mL, diluted in HBD
[5] = target: TSHR260-alkaline phosphatase (TSHR260-AP) (human) (UniProt P05187); test: TSHR260-AP bridge ELISA, full length TSHR on wells; 0.05 µg/mL, diluted in HBD
TSHR260-AP (human) [6] = test: TSHR260-AP bridge ELISA (full length TSHR on wells, TSHR260-AP in solution); IgG 1 µg/mL diluted in assay buffer
[7] = target: TSHR260-alkaline phosphatase (TSHR260-AP) (human) (UniProt P05187); test: TSHR260-AP bridge ELISA, full length TSHR on wells; 1 µg/mL, diluted in HBD
TSHR260-AP (human) [8] = test: TSHR260-AP bridge ELISA (full length TSHR on wells, TSHR260-AP in solution); IgG 0.5 µg/mL diluted in HBD serum
[9] = target: human TSH receptor (full length, wild type) expressed in CHO cells (human) (UniProt P16473); test: cell-based or functional assay
[10] = target: TSHR260-alkaline phosphatase (TSHR260-AP) (human) (UniProt P05187); test: TSHR260-AP bridge ELISA, full length TSHR on wells; 250 µg/mL, diluted in assay buffer
[11] = target: TSHR260-alkaline phosphatase (TSHR260-AP) (human) (UniProt P05187); test: TSHR260-AP bridge ELISA, full length TSHR on wells; 100 µg/mL, diluted in HBD
[12] = target: human TSHR (thyroid stimulating hormone receptor) expressed in transfected CHO cells (human) (UniProt P16473); test: cell-based or functional assay
[13] = target: human TSHR (wild type, full length) expressed in CHO cells (human) (UniProt P16473); test: cell-based or functional assay
[14] = target: TSHR260-alkaline phosphatase (TSHR260-AP) (human) (UniProt P05187); test: TSHR260-AP bridge ELISA, full length TSHR on wells; 0.05 µg/mL, diluted in assay buffer
TSHR260-AP (human) [15] = test: TSHR260-AP bridge ELISA (full length TSHR on wells, TSHR260-AP in solution); IgG 0.005 µg/mL diluted in assay buffer
TSHR260-AP (human) [16] = test: TSHR260-AP bridge ELISA (full length TSHR on wells, TSHR260-AP in solution); IgG 1 µg/mL diluted in HBD serum
TSHR260-AP (human) [17] = test: TSHR260-AP bridge ELISA (full length TSHR on wells, TSHR260-AP in solution); IgG 0.1 µg/mL diluted in HBD serum
[18] = target: human TSH receptor (full length, wild type) expressed in CHO cells (human) (UniProt P16473); test: cell-based or functional assay; remark: listed apart in the source
[19] = target: TSHR260-alkaline phosphatase (TSHR260-AP) (human) (UniProt P05187); test: TSHR260-AP bridge ELISA, full length TSHR on wells; 10 µg/mL, diluted in HBD
[20] = target: TSHR260-alkaline phosphatase (TSHR260-AP) (human) (UniProt P05187); test: TSHR260-AP bridge ELISA, full length TSHR on wells; 0.1 µg/mL, diluted in HBD
[21] = target: human TSH receptor (full length, wild type) expressed in CHO cells (human) (UniProt P16473); test: cell-based or functional assay; remark: listed apart in the source
TSHR260-AP (human) [22] = test: TSHR260-AP bridge ELISA (full length TSHR on wells, TSHR260-AP in solution); IgG 100 µg/mL diluted in HBD serum
[23] = target: human TSHR (wild type, full length) expressed in CHO cells (human) (UniProt P16473); test: cell-based or functional assay; remark: listed apart in the source
[24] = target: TSHR260-alkaline phosphatase (TSHR260-AP) (human) (UniProt P05187); test: TSHR260-AP bridge ELISA, full length TSHR on wells; 10 µg/mL, diluted in assay buffer

- Mean absorbance at 405 nm (absorbance at 405 nm) (TSHR260-AP (human) [1]): -0.014
- Mean absorbance at 405 nm (absorbance at 405 nm) (TSHR260-AP (human) [2]): 0.027
- Mean absorbance at 405 nm (absorbance at 405 nm) (TSHR260-AP (human) [3]): 0.012
- Mean absorbance at 405 nm (absorbance at 405 nm) [4]: -0.001
- Mean absorbance at 405 nm (absorbance at 405 nm) [5]: -0.006
- Mean absorbance at 405 nm (absorbance at 405 nm) (TSHR260-AP (human) [6]): -0.004
- Mean absorbance at 405 nm (absorbance at 405 nm) [7]: 0.049
- Mean absorbance at 405 nm (absorbance at 405 nm) (TSHR260-AP (human) [8]): -0.001
- % Inhibition; T4 serum + 100 µg/mL 5B3 IgG [9]: 30.3%
- % Inhibition; T5 serum + 100 µg/mL 5B3 IgG [9]: 0%
- % Inhibition; T6 serum + 100 µg/mL 5B3 IgG [9]: 1.8%
- Cyclic AMP concentration; 100 µg/mL 5B3 IgG alone [9]: 2.6 pmol/mL
- Cyclic AMP concentration; HBD + 100 µg/mL 5B3 IgG [9]: 3 pmol/mL
- Cyclic AMP concentration; T4 serum + 100 µg/mL 5B3 IgG [9]: 55 pmol/mL
- Cyclic AMP concentration; T5 serum + 100 µg/mL 5B3 IgG [9]: 66.7 pmol/mL
- Cyclic AMP concentration; T6 serum + 100 µg/mL 5B3 IgG [9]: 81.5 pmol/mL
- Mean absorbance at 405 nm (absorbance at 405 nm) [10]: 0.018
- Mean absorbance at 405 nm (absorbance at 405 nm) [11]: 0.003
- Cyclic AMP concentration; 3 ng/mL M22 IgG + 10 µg/mL 5B3 IgG [12]: 21.6 pmol/mL
- Cyclic AMP concentration; 3 ng/mL M22 IgG + 100 µg/mL 5B3 IgG [12]: 28.1 pmol/mL
- Cyclic AMP concentration; 100 µg/mL 5B3 IgG [12]: 1.1 pmol/mL
- % Inhibition of T13 serum stimulation; 100 µg/mL 5B3 IgG [13]: 22.5%
- % Inhibition of T14 serum stimulation; 100 µg/mL 5B3 IgG [13]: 24.6%
- % Inhibition of T15 serum stimulation; 100 µg/mL 5B3 IgG [13]: 18.3%
- Cyclic AMP concentration; 100 µg/mL 5B3 IgG alone [13]: 4.1 pmol/mL
- Cyclic AMP concentration; HBD + 100 µg/mL 5B3 IgG [13]: 5.1 pmol/mL
- Cyclic AMP concentration; T13 serum + 100 µg/mL 5B3 IgG [13]: 37.6 pmol/mL
- Cyclic AMP concentration; T14 serum + 100 µg/mL 5B3 IgG [13]: 20.5 pmol/mL
- Cyclic AMP concentration; T15 serum + 100 µg/mL 5B3 IgG [13]: 41.9 pmol/mL
- Mean absorbance at 405 nm (absorbance at 405 nm) [14]: -0.009
- Mean absorbance at 405 nm (absorbance at 405 nm) (TSHR260-AP (human) [15]): -0.012
- Mean absorbance at 405 nm (absorbance at 405 nm) (TSHR260-AP (human) [16]): 0.049
- Mean absorbance at 405 nm (absorbance at 405 nm) (TSHR260-AP (human) [17]): -0.002
- % Inhibition; T7 serum + 100 µg/mL 5B3 IgG [18]: 0%
- % Inhibition; T8 serum + 100 µg/mL 5B3 IgG [18]: 10.9%
- % Inhibition; T9 serum + 100 µg/mL 5B3 IgG [18]: 0%
- Cyclic AMP concentration; 100 µg/mL 5B3 IgG alone [18]: 2.7 pmol/mL
- Cyclic AMP concentration; HBD + 100 µg/mL 5B3 IgG [18]: 4 pmol/mL
- Cyclic AMP concentration; T7 serum + 100 µg/mL 5B3 IgG [18]: 91.9 pmol/mL
- Cyclic AMP concentration; T8 serum + 100 µg/mL 5B3 IgG [18]: 76.3 pmol/mL
- Cyclic AMP concentration; T9 serum + 100 µg/mL 5B3 IgG [18]: 53.2 pmol/mL
- Mean absorbance at 405 nm (absorbance at 405 nm) [19]: -0.006
- Mean absorbance at 405 nm (absorbance at 405 nm) [20]: -0.002
- % Inhibition; T10 serum + 100 µg/mL 5B3 IgG [21]: 0%
- % Inhibition; T11 serum + 100 µg/mL 5B3 IgG [21]: 3.2%
- % Inhibition; T12 serum + 100 µg/mL 5B3 IgG [21]: 0%
- Cyclic AMP concentration; 100 µg/mL 5B3 IgG alone [21]: 2 pmol/mL
- Cyclic AMP concentration; HBD + 100 µg/mL 5B3 IgG [21]: 2.4 pmol/mL
- Cyclic AMP concentration; T10 serum + 100 µg/mL 5B3 IgG [21]: 59.3 pmol/mL
- Cyclic AMP concentration; T11 serum + 100 µg/mL 5B3 IgG [21]: 39.7 pmol/mL
- Cyclic AMP concentration; T12 serum + 100 µg/mL 5B3 IgG [21]: 43.3 pmol/mL
- Mean absorbance at 405 nm (absorbance at 405 nm) (TSHR260-AP (human) [22]): 0.003
- % Inhibition of T8 serum stimulation; 0.1 µg/mL 5B3 IgG [23]: 3%
- % Inhibition of T8 serum stimulation; 1 µg/mL 5B3 IgG [23]: 2%
- % Inhibition of T8 serum stimulation; 10 µg/mL 5B3 IgG [23]: 0%
- % Inhibition of T8 serum stimulation; 100 µg/mL 5B3 IgG [23]: 3%
- Cyclic AMP concentration; 0.1 µg/mL 5B3 IgG + T8 [23]: 50.7 pmol/mL
- Cyclic AMP concentration; 1 µg/mL 5B3 IgG + T8 [23]: 51.4 pmol/mL
- Cyclic AMP concentration; 10 µg/mL 5B3 IgG + T8 [23]: 56 pmol/mL
- Cyclic AMP concentration; 100 µg/mL 5B3 IgG + T8 [23]: 50.5 pmol/mL
- Cyclic AMP concentration; 100 µg/mL 5B3 IgG alone [23]: 2.1 pmol/mL
- Mean absorbance at 405 nm (absorbance at 405 nm) [24]: -0.014
Substance: 5B3 IgG (antibody)

Source: US20110300138A1 (published 2011)
